According to article PMC11320721 (Nature structural & molecular biology, 2024):
No end group written: not given here. Me3 = trimethyl (lysine)

Assays:
[1] = target: T1, PZP domain of JADE1 (JADE1PZP), wild type (human, UniProt Q6IE81 201-373); test: NMR titration
[2] = target: T1, PZP domain of JADE1 (JADE1PZP), wild …; test: other fluorescence titration
[3] = target: E215K mutant of JADE1PZP (human, UniProt Q6IE81 201-373, E215K); test: other fluorescence titration
Sequence of E215K mutant of JADE1PZP (Q6IE81 201-373 E215K): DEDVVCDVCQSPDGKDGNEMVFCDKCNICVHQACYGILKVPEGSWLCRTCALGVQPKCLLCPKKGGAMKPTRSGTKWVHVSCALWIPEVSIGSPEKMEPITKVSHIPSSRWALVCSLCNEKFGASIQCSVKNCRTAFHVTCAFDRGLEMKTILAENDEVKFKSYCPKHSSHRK

T1 sequence (Q6IE81 201-373): as the sequence (Q6IE81 201-373 E215K) above, with K15E counted along it

Kd [1] [µM] | Kd [2] [µM] | fold decrease in binding affinity against wild type JADE1PZP [3] [fold] | Binder
3000 | – | – | ARTK(Me3)QTARKSTG (peptide, UniProt P68431 2-13, looked up) [H3K4me3_(1–12) peptide]
– | 0.9 | 3 | ARTKQTARKSTG (peptide, UniProt P68431 2-13, looked up) [H3_(1–12) peptide (residues 1–12 of H3)]
